Key:
[1] = target: HLA-C*06:02 on single-antigen beads; test: Luminex single-antigen HLA bead binding assay
[2] = target: HLA-C*03:04 on single-antigen beads; test: Luminex single-antigen HLA bead binding assay

Substance | MFI at 20 μg/ml [1] | Kd [2] | Kd [1]
soluble KIR2DL2*001 Fc fusion protein (sKIR2DL2*001) (from UniProt P43627 22-245) | < 500 MFI | 0.2 µM | –
soluble KIR2DL2*003 Fc fusion protein (sKIR2DL2*003) (from UniProt P43627 22-245) | < 500 MFI | 0.7 µM | 24 µM
soluble KIR2DL3*002 Fc fusion protein (sKIR2DL3*002) (from UniProt P43628 22-245) | – | 1.2 µM | –
soluble KIR2DL3*005 Fc fusion protein (sKIR2DL3*005) (from UniProt P43628 22-245) | < 500 MFI | 0.1 µM | 7 µM

Results, then the substance that gave them:

MFI at 20 μg/ml [1] | Kd [2] | Kd [1] | Substance
< 500 MFI | – | 4.3 µM | soluble KIR2DL2*006 Fc fusion protein (sKIR2DL2*006) (from UniProt P43627 22-245)
– | 1 µM | – | soluble KIR2DL3*001 Fc fusion protein (sKIR2DL3*001) (from UniProt P43628 22-245)
